B1: Azoarcus group I ribozyme (parent)
chain: GUGCCUUGCGCCGGGAAACCACGCAAGGGAUGGUGUCAAAUUCGGCGAAACCUAAGCGCCCGCCCGGGCGUAUGGCAACGCCGAGCCAAGCUUCGGCGCCUGCGCCGAUGAAGGUGUAGAGACUAGACGGCACCCACCUAAGGCAAACGCUAUGGUGAAGGCAUAGUCCAGGGAGUGGCGAAAGUCACACAAACCGG

The data set covers variants of B1. The data set can be described thus: reverse-splicing fitness (ratio to wild type); higher = more active; in vitro selection; Mg2+ level not given. The gist of the method: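 An in vitro group I ribozyme library with randomized positions was T7-transcribed and gel-purified. In triplicate, 10 pmol RNA in EPPS pH 7.5 was reacted with 50 pmoles of a 30-nt RNA substrate for 1 h at 37 °C across several added MgCl2 levels (1–48 mM), then stopped with EDTA. Products were reverse transcribed from a substrate-complementary primer, PCR-amplified and sequenced (HiSeq 4000). Fitness is a variant's read proportion after selection over that before, normalised to wild type.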
With A111U A120C C150U C169U U176C, the reverse-splicing fitness was 0.0362.

Turning to A111U A120C C150U C169U U176G, the reverse-splicing fitness was found to be 0.00585.

With A111U A120C C150U C169U U176A, the reverse-splicing fitness came to 0.0292. For A111U A120C A145U U176G, the reverse-splicing fitness turned out to be 0.0572.

Regarding A111U A120C A145U U176A, the reverse-splicing fitness came out at 0.259. The result for A111U A120C A145U U176C reads 0.3.

As to A111U A120C A145C C150U C169U U176C, the reverse-splicing fitness amounted to 0.0178.

A111U A120C A145C C150U C169U U176G: the reverse-splicing fitness was 0.0056. The figure for A111U A120C A145C C150U C169U U176A is 0.0199; for A111U A120G A145G C150A C169A U176A it is 0.0188; for A111U A120G A145G C150A C169A U176C it is 0.0255. The figure for A111U A120G A145C C150G C169G is 0.0237; for A111U A120G A145C C150G C169U it is 0.0237; for A111U A120G A145C C150G C169A it is 0.0154.

Turning to A111U A120C C150G C169G U176C, the reverse-splicing fitness turned out to be 0.00491. The figure for A111U A120C C150G C169G U176G is 0.00508; for A111U A120C C150G C169G U176A it is 0.00683. The result for A111U A120C U176C reads 0.28; that for A111U A120C U176A, 0.277. The figure for A111U A120C U176G is 0.0439; for A111U A120C A145G C169U U176C it is 0.046; for A111U A120C A145G C169U U176G it is 0.00517. Turning to A111U A120C A145G C169U U176A, the reverse-splicing fitness is 0.0335.

For the variant A111U A120C C150G C169U U176C, the reverse-splicing fitness is 0.0162.

As for A111U A120C C150G C169U U176A, the reverse-splicing fitness stood at 0.00853. The figure for A111U A120C C150G C169U U176G is 0.00475. Turning to A111U A120C C150G U176A, the reverse-splicing fitness stood at 0.0104. In the case of A111U A120C C150G U176C, the reverse-splicing fitness turned out to be 0.0262. The result for A111U A120C C150G U176G reads 0.00366; that for A111U A120C A145G C150A C169G, 0.00836. The figure for A111U A120C A145G C150A C169U is 0.034; for A111U A120C A145G C150A C169A it is 0.0121.

For A111U A120C A145G C150U, the reverse-splicing fitness amounted to 0.495. The figure for A111U A120C A145G C150A is 0.0986. The figure for A111U A120C A145G C150G is 0.0716; for A111U A120C A145G U176G it is 0.0419; for A111U A120C A145G U176A it is 0.246. The figure for A111U A120C A145G U176C is 0.306.

For the variant A111U A120C A145C C169A, the reverse-splicing fitness was 0.00906. The figure for A111U A120C A145C C169U is 0.164; for A111U A120C A145C C169G it is 0.00891.

In the case of A111U A120C A145C C169A U176A, the reverse-splicing fitness stood at 0.00934. The result for A111U A120C A145C C169A U176C reads 0.00538. Turning to A111U A120C A145C C169A U176G, the reverse-splicing fitness was determined as 0.00493. Turning to A111U A120C C169U U176G, the reverse-splicing fitness was determined as 0.00626. Regarding A111U A120C C169U U176C, the reverse-splicing fitness is 0.0473. As to A111U A120C C169U U176A, the reverse-splicing fitness was found to be 0.0322. The result for A111U A120C A145U C169U U176G reads 0.00586; that for A111U A120C A145U C169U U176C, 0.0439; that for A111U A120C A145U C169U U176A, 0.0319. The result for A111U A120C A145C U176A reads 0.232; that for A111U A120C A145C U176G, 0.0498. The result for A111U A120C A145C U176C reads 0.243; that for A111U A120C A145C C150U C169G, 0.00744; that for A111U A120C A145C C150U C169A, 0.00788. For A111U A120C A145C C150U C169U, the reverse-splicing fitness is 0.05. The figure for A111U A120C C150A C169A U176C is 0.0133; for A111U A120C C150A C169A U176G it is 0.00474. The figure for A111U A120C C150A C169A U176A is 0.0178; for A111U A120C C150G C169U it is 0.02; for A111U A120C C150G C169G it is 0.0073. In the case of A111U A120C C150G C169A, the reverse-splicing fitness was found to be 0.00861. The result for A111U A120C C150U C169U reads 0.0972; that for A111U A120C C150U C169G, 0.00855. The result for A111U A120C C150U C169A reads 0.0121; that for A111U A120C A145U C150A U176A, 0.034. With A111U A120C A145U C150A U176G, the reverse-splicing fitness was determined as 0.0114. The result for A111U A120C A145U C150A U176C reads 0.0509; that for A111U A120C C150U U176C, 0.204; that for A111U A120C C150U U176A, 0.154.

Consider A111U A120C C150U U176G, for which the reverse-splicing fitness was determined as 0.0321. The result for A111U A120G A145C C150U C169G U176C reads 0.0226.

On to A111U A120G A145C C150U C169G U176A, for which the reverse-splicing fitness was 0.0293.

For A111U A120G A145C C150U C169G U176G, the reverse-splicing fitness came to 0.00545.

For A111U A120G A145C C150U C169A, the reverse-splicing fitness was 0.0284. Take A111U A120G A145C C150U C169U: the reverse-splicing fitness is 0.0397. The figure for A111U A120G A145C C150U C169G is 0.0495; for A111U A120G A145C C150U C169A U176A it is 0.012. In the case of A111U A120G A145C C150U C169A U176C, the reverse-splicing fitness amounted to 0.00998. Regarding A111U A120G A145C C150U C169A U176G, the reverse-splicing fitness stood at 0.00531.

For A111G C169U, the reverse-splicing fitness turned out to be 0.196. The result for A111U A120G A145C C169A U176C reads 0.0194; that for A111U A120G A145C C169A U176A, 0.0217. In the case of A111U A120G A145C C169A U176G, the reverse-splicing fitness was found to be 0.00414.

These data come from the RNAGym collection of RNA variant scans (doi:10.1093/molbev/msab373).
